The chains are these.
B1: Anti-C1s antibody hz2-8 (H1L2 G80A) (antibody, V domains shown)
VH: QVQLVQSGAEVKKPGASVKVSCKASGFNIKEYYMHWVRQAPEQGLEWMGWIDPENADTIYAQKFQGRVTITADTSTNTAYMELSSLRSEDTAVYYCARSRLFFAYWGQGTLVTVSS
VL: DIQMTQSPKSLSASVGDRVTITCRASQDVRTALDWYQQKPGQSPKLLIYSASYRYSGVPSRFSGSGSGTDFTLTISSLQPEDFATYYCQQQYTTPYTFGQGTKLEIKR
notes: Humanized variant with G80A in HC CDR2 (already in the entry), human IgG1 / kappa
B2: Anti-C1s antibody hz2-8 (H1L2 G80A/T82A) (antibody, V domains shown)
VH: B1 VH with T58A
VL: B1 VL
notes: Humanized variant with G80A and T82A in HC CDR2 (already in the entry), human IgG1 / kappa
B3: Anti-C1s antibody hz2-7(H1L2) (antibody, V domains shown)
VH: EVQLLESGGGLVQPGGSLRLSCAASGFTFSNYFMNWVRQAPGKGLEWVSEIRLKFTNYATHYADSVKGRFTISRDDSKSTLYLQMNSLRAEDTAVYYCTRDYGSRNGYFDYWGQGTLVTVSS
VL: DIVMTQTPLSLPVTPGEPASISCRSSKSLLHSNGNTFLYWFLQKPGQSPQLLIYRMSNLASGVPDRFSGSGSGTDFTLKISRVEAEDVGVYYCMQHLEYPYTFGGGTKLEIKR
notes: Humanized, human IgG1 / kappa; also called hz2-7(1L2)

Positions count from the first letter of the chain named. Names may count otherwise.

The first test concerns the target T1, human C1s mutant M19 (Q303K) (human, UniProt P09871 16-688).
T1 construct: The entry is the mutant itself
T1 sequence: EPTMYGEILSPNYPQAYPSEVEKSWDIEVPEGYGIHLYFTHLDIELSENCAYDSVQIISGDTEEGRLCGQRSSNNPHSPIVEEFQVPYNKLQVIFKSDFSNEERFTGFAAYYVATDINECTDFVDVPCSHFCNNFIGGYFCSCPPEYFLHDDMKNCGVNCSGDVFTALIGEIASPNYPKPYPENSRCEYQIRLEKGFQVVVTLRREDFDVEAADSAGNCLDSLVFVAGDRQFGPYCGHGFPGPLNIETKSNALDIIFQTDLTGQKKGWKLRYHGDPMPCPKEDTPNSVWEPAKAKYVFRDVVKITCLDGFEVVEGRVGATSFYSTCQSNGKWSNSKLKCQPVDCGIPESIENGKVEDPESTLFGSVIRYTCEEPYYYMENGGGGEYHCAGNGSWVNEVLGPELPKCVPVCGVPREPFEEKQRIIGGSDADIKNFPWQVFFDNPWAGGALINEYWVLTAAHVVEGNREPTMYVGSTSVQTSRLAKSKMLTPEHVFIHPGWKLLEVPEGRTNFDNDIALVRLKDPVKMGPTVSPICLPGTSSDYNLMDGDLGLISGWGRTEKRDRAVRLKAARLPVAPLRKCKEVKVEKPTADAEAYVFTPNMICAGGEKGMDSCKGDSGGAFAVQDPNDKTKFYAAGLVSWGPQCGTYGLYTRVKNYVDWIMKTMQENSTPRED
Briefly: ELISA, plate coated with human C1s mutant M19: Q303K, OD450nm. On the procedure:
(§1) ELISA was carried out by first coating 96-well plates with 200 ng/well of full-length or truncated C1s proteins overnight. The next morning, plates were blocked with SuperBlock T20 blocking buffer (Thermo Scientific 37536) for 1 h with gentle shaking. Then, various concentrations of anti-C1s antibodies diluted in SuperBlock T20 blocking buffer were added to the plates and incubated for 1 h with gentle shaking. Mouse IgG (Sigma-Aldrich 15381) and human IgG1 (BioXCell BP0297) were used as negative controls. The plates were washed before incubating with HRP conjugated secondary antibodies diluted in SuperBlock T20 blocking buffer (goat anti-mouse IgG (H+L) cross-adsorbed secondary antibody HRP (Invitrogen G-21040) or goat anti-human IgG antibody, HRP conjugate (Millipore AP309P)) for 1 h with gentle shaking. At last, the plates were washed and color developed with ELISA liquid HRP substrate (Sigma-Aldrich), followed by stopping the reaction with addition of 1M H₂SO₄ in the same volume as the ELISA liquid substrate. Bound antibody was measured by absorbance at OD₄₅₀ₙₘ.
(§2) Binding of anti-C1s antibodies to mutants M1-M20 of human C1s was measured by ELISA as described in Example 4, and results are shown in FIGS. 6B-6U. All anti-C1s humanized variants including hz2-7(H1L2), hz2-8(H1L2 G80A) and hz2-8(H1L2 G80A/T82A) maintained strong binding properties to the majority (16 out of 20) of C1s mutants including M1 (FIG. 6B), M2 (FIG. 6C), M3 (FIG. 6D). M4 (FIG. 6E), M7 (FIG. 6H), M8 (FIG. 6I), M10 (FIG. 6K), M11 (FIG. 6L), M12 (FIG. 6M), M13 (FIG. 6N), M15 (FIG. 6P), M16 (FIG. 6Q), M17 (FIG. 6R), M18 (FIG. 6S), M19 (FIG. 6T) and M20 (FIG. 6U).
For orientation: EC50 means the midpoint of the concentration-response curve. A lower EC50 goes with a more potent agent. As for B1, the EC50 was determined as 1 ng/mL.
Regarding B2, the EC50 amounted to 1 ng/mL.
Same read-out and setting: next, B3: 2 ng/mL.

The target in a further test is T2, human C1s mutant M12 (G381E & G382E) (human, UniProt P09871 16-688).
T2 construct: The entry is the mutant itself
T2 sequence: T1 sequence with K303Q, G381E, G382E
Briefly: ELISA, plate coated with human C1s mutant M12: G381E, G382E, OD450nm. On the procedure: as §1, §2
A general note: An ELISA detects its analyte on a solid surface through an enzyme-linked reagent.
B1: the response was half-maximal at 5 ng/mL (EC50).
On to B2, for which the midpoint of the response, the EC50, lay at 5 ng/mL.
The molecule B3 came in with an EC50 of 5 ng/mL.

(Values after patent US20230051715A1 (MABWELL THERAPEUTICS, published 2023).)
